{"source": "paper PMC5500832", "about": "(Chemical Science, 2015)", "format": "physicochemical", "details": "all pH values (3, 5, 7 and 9); 20 °C; over eight days; HPLC-MSMS; detection limit = 0.05%"}
{"sequence": "FFRKSIINFEKL [compound 3]", "values": [{"measurement": "Formation of α-GalCer (background hydrolysis, linker collapse)", "value": "No formation of α-GalCer was detected"}]}
